In patent US20090285843A1, “EPITOPE SEQUENCES” (Mannkind Corporation, priority 2002, published 2009):

Experiments:
[1] = target: HLA-A2.1 (Homo sapiens, UniProt P04439, D140Y/D185E/D98H/E176V/E277Q/G131W/G231S/I119V/I121R/I166T/I218V/L300P/L318F/N151K/N90K/P208A/P217A/Q86G/Q94H/R138H/R169H/T345S); experiment: HLA-A0201 binding assay (T2 cells, flow cytometry); settings: for binding to HLA-A2.1: T2 cells, flow cytometry, compared with control peptides
[2] = system: peptide pulsed T2 cells; experiment: In vitro immunization of HLA-A2+ blood (CTL induction cultures), chromium release assay; assay type: cell-based, human
Description: (§1) , tyrosinase207-215 (SEQ ID NO. 8) was used in an in vitro immunization of HLA-A2^+ blood to generate CTL (see CTL Induction Cultures below).
(§2) PBMCs from normal donors were purified by centrifugation in Ficoll-Hypaque from buffy coats. All cultures were carried out using the autologous plasma (AP) to avoid exposure to potential xenogeneic pathogens and recognition of FBS peptides. To favor the in vitro generation of peptide-specific CTL, we employed autologous dendritic cells (DC) as APCs. DC were generated and CTL were induced with DC and peptide from PBMCs as described (Keogh et al., 2001). Briefly, monocyte-enriched cell fractions were cultured for 5 days with GM-CSF and IL-4 and were cultured for 2 additional days in culture media with 2 μg/ml CD40 ligand to induce maturation. 2×10^6 CD8+-enriched T lymphocytes/well and 2×10^5 peptide-pulsed DC/well were co-cultured in 24-well plates in 2 ml RPMI supplemented with 10% AP, 10 ng/ml IL-7 and 20 IU/ml IL-2. Cultures were restimulated on days 7 and 14 with autologous irradiated peptide-pulsed DC.

[3] = system: 624.38; experiment: In vitro induced CTL, chromium release assay on tumor cell line; assay type: cell-based, human; settings: 624.38, HLA-A2+, tyrosinase+
Description: as §1, §2

[4] = system: HTB64; experiment: as above; assay type: cell-based, human; settings: HTB64, HLA-A2+, tyrosinase+
Description: as §1, §2

[5] = target: T1, proteasome isolated from human red blood cells (Homo sapiens, UniProt P28072+P28074+Q99436); experiment: N-terminal pool sequence analysis of proteasomal digest; assay type: biochemical; settings: in vitro proteasome digestion and N-terminal pool sequencing
T1 construct: from tissue; host or cells: human red blood cells
Excerpt: One aliquot at one hour of the proteasomal digestion (see Example 3 part 3 above) was subjected to N-terminal amino acid sequence analysis by an ABI 473A Protein Sequencer (Applied Biosystems, Foster City, Calif.). Determination of the sites and efficiencies of cleavage was based on consideration of the sequence cycle, the repetitive yield of the protein sequencer, and the relative yields of amino acids unique in the analyzed sequence. That is if the unique (in the analyzed sequence) residue X appears only in the nth cycle a cleavage site exists n−1 residues before it in the N-terminal direction.

[6] = system: peptide pulsed T2 cells; experiment: In vivo immunization of mice, in vitro stimulation, chromium-release assay measuring CTL activity; parameters: species or system HHD1 transgenic A*0201 mice; settings: 100 nmol peptide s.c. with HTL epitope peptide in IFA; 51Cr-release
Description: Using spleens from 2 naive mice for each group of immunized mice, un-immunized mice were sacrificed and the carcasses were placed in alcohol. Using sterile instruments, the top dermal layer of skin on the mouse's left side (lower mid-section) was cut through, exposing the peritoneum. The peritoneum was saturated with alcohol, and the spleen was aseptically extracted. The spleen was placed in a petri dish with serum-free media. Splenocytes were isolated by using sterile plungers from 3 ml syringes to mash the spleens. Cells were collected in a 50 ml conical tubes in serum-free media, rinsing dish well. Cells were centrifuged ([…], 7 min) and washed one time with RPMI. Fresh spleen cells were resuspended to a concentration of 1×10^6 cells per ml in RPMI-10% FCS (fetal calf serum). 25 µg/ml lipopolysaccharide and 7 μg/ml Dextran Sulfate were added. Cell were incubated for 3 days in T-75 flasks at 37° C., with 5% CO2. Splenic blasts were collected in 50 ml tubes pelleted ([…], 7 min) and resuspended to 3×10^7/ml in RPMI. The blasts were pulsed with the priming peptide at 50 μg/ml, RT 4 hr. mitomycin C-treated at 25 μg/ml, 37° C., 20 min and washed three times with DMEM. […]
During incubation they were gently shaken every 15 minutes. […] Supernatants were harvested and counted using a gamma counter.

[7] = system: tumor cells expressing other SSX proteins; experiment: Cross-reactivity of CTL with other SSX proteins; assay type: cell-based
Excerpt: The surrounding regions have also been generally well conserved. Thus the housekeeping proteasome can cleave following V49 in all five sequences.

[8] = system: metastatic melanoma; settings: first 15 patients; intradermal peptide with IL-12; cited from earlier work
[9] = system: HLA-A1+ CD8+ T cells; experiment: gamma-IFN-based ELISPOT assay; assay type: cell-based, human; settings: blocking of gamma IFN production by anti-HLA-A1 monoclonal antibody
Description: The wells of a nitrocellulose-backed microtiter plate were coated with capture antibody by incubating overnight at 4° C. using 50 μl (microliter)/well of 4 μg/ml murine anti-human γ (gamma)-IFN monoclonal antibody in coating buffer (35 mM sodium bicarbonate, 15 mM sodium carbonate, pH 9.5). Unbound antibody was removed by washing 4 times 5 min. with PBS. Unbound sites on the membrane then were blocked by adding 200 μl (microliter)/well of RPMI medium with 10% serum and incubating 1 hr. at room temperature. Antigen stimulated CD8^+ T cells, in 1:3 serial dilutions, were seeded into the wells of the microtiter plate using 100 μl (microliter)/well, starting at 2×10^5 cells/well. (Prior antigen stimulation was essentially as described in Scheibenbogen, C. et al. Int. J. […] PSMA462-471 (SEQ ID NO. 62) was added to a final concentration of 10 μg/ml and IL-2 to 100 U/ml and the cells cultured at 37° C. in a 5% CO2, water-saturated atmosphere for 40 hrs. Following this incubation the plates were washed with 6 times 200 μl (microliter)/well of PBS containing 0.05% Tween-20 (PBS-Tween). […] The plate was air dried and the spots counted using a stereomicroscope. […] No reactivity is detected from cultures without peptide (data not shown).

FLPWHRLFL (listed as Homo sapiens) [tyrosinase207-215]
binding to HLA-A2.1 [1]: more significant binding | immunogenicity ([2]; compared with the other tyrosinase length variant): superior immunogenicity | recognition of tyrosinase207-216 targets by CTL induced by the peptide ([2]; peptide pulsed T2 cells, standard chromium release assay): equally well | recognition of tumor cell line by CTL induced by the peptide [3]: recognize | recognition of tumor cell line by CTL induced by the peptide [4]: recognize

FLPWHRLFLL (listed as Homo sapiens) [Tyrosinase207-216]
relative production by in vitro proteasome digestion [5]: produced more commonly

GLPSIPVHPI (listed as Homo sapiens) [PSMA288-297]
binding to HLA-A2.1 [1]: significant binding at even lower concentrations than the positive control peptides

GMPEGDLVYV (listed as Homo sapiens) [PSMA168-177]
binding to HLA-A2.1 [1]: significant binding at even lower concentrations than the positive control peptides

KASEKIFYV [SSX-241-49]
binding to HLA-A2.1 [1]: bind HLA-A2.1 to a similar extent as the known A2.1 binder FLPSDYFPSV | specific lysis of peptide pulsed targets by CTL from immunized mice [6]: specific lysis | cross-reactivity of CTL generated by immunization [7]: cross-react with tumor cells expressing other SSX proteins

MART-126-35 peptide: MART-1 26-35 peptide given intradermally with IL-12 to metastatic melanoma patients (Cebon et al.)
clinical response [8]: 1 complete remission, 1 partial remission, and 1 mixed response

MMNDQLMFL [PSMA663-671]
binding to HLA-A2.1 [1]: significant binding at even lower concentrations than the positive control peptide

RMMNDQLMFL (listed as Homo sapiens) [PSMA662-671]
binding to HLA-A2.1 [1]: significant binding at even lower concentrations than the positive control peptide | binding activity compared between the two PSMA peptides ([1]; not run in parallel, comparison to the controls): superior binding activity

RVDCTPLMY [PSMA463-471]
HLA restriction of response [9]: HLA-A1-restricted response

TLRVDCTPL (listed as Homo sapiens) [PSMA461-469]
binding to HLA-A2.1 [1]: binds nearly as well

YTLRVDCTPL (listed as Homo sapiens) [PSMA460-469]
binding to HLA-A2.1 [1]: bind HLA-A2.1 to a similar extent as the known A2.1 binder FLPSDYFPSV
